Measured values taken from paper PMC12416549 (2024).

Molecular target: T1, TNFR1 (Homo sapiens, UniProt P19438)
T1 chain: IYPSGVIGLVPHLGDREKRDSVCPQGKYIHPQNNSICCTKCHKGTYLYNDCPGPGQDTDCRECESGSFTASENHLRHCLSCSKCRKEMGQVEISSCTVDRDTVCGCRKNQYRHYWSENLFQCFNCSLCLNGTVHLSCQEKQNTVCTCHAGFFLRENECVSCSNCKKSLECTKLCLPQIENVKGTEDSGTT
Assay: yeast display SC50

| Binder | apparent Kd (screen) [nM] |
| --- | --- |
| K31G (designed binder) SMEEEVEKAAKEYEKKKKEAIEKHLEKLKAGDKEAAERFLKELEEAAKEYAKDEAKTMSEEEAKRRAKKYKEKVLLSELSEEEQKEIKEAEEKLVRTILKYVEEAAK | 0.653 |
| E19L (designed binder) SMEEEVEKAAKEYEKKKKLAIEKHLEKLKAKDKEAAERFLKELEEAAKEYAKDEAKTMSEEEAKRRAKKYKEKVLLSELSEEEQKEIKEAEEKLVRTILKYVEEAAK | 0.49 |
| E78C (designed binder) SMEEEVEKAAKEYEKKKKEAIEKHLEKLKAKDKEAAERFLKELEEAAKEYAKDEAKTMSEEEAKRRAKKYKEKVLLSCLSEEEQKEIKEAEEKLVRTILKYVEEAAK | 0.49 |
| A46L (designed binder) SMEEEVEKAAKEYEKKKKEAIEKHLEKLKAKDKEAAERFLKELEELAKEYAKDEAKTMSEEEAKRRAKKYKEKVLLSELSEEEQKEIKEAEEKLVRTILKYVEEAAK | 12.5 |
| E78T (designed binder) SMEEEVEKAAKEYEKKKKEAIEKHLEKLKAKDKEAAERFLKELEEAAKEYAKDEAKTMSEEEAKRRAKKYKEKVLLSTLSEEEQKEIKEAEEKLVRTILKYVEEAAK | 1.27 |
| K88P (designed binder) SMEEEVEKAAKEYEKKKKEAIEKHLEKLKAKDKEAAERFLKELEEAAKEYAKDEAKTMSEEEAKRRAKKYKEKVLLSELSEEEQKEIPEAEEKLVRTILKYVEEAAK | 7.78 |

Now from value to binder:

| apparent Kd (screen) [nM] | Binder |
| --- | --- |
| 1.69 | S80I (designed binder) SMEEEVEKAAKEYEKKKKEAIEKHLEKLKAKDKEAAERFLKELEEAAKEYAKDEAKTMSEEEAKRRAKKYKEKVLLSELIEEEQKEIKEAEEKLVRTILKYVEEAAK |
| 0.539 | K29N (designed binder) SMEEEVEKAAKEYEKKKKEAIEKHLEKLNAKDKEAAERFLKELEEAAKEYAKDEAKTMSEEEAKRRAKKYKEKVLLSELSEEEQKEIKEAEEKLVRTILKYVEEAAK |
| 3 | V6L (designed binder) SMEEELEKAAKEYEKKKKEAIEKHLEKLKAKDKEAAERFLKELEEAAKEYAKDEAKTMSEEEAKRRAKKYKEKVLLSELSEEEQKEIKEAEEKLVRTILKYVEEAAK |
| 0.446 | E83M (designed binder) SMEEEVEKAAKEYEKKKKEAIEKHLEKLKAKDKEAAERFLKELEEAAKEYAKDEAKTMSEEEAKRRAKKYKEKVLLSELSEEMQKEIKEAEEKLVRTILKYVEEAAK |
| 4.39 | A46K (designed binder) SMEEEVEKAAKEYEKKKKEAIEKHLEKLKAKDKEAAERFLKELEEKAKEYAKDEAKTMSEEEAKRRAKKYKEKVLLSELSEEEQKEIKEAEEKLVRTILKYVEEAAK |
| 1.54 | E4W (designed binder) SMEWEVEKAAKEYEKKKKEAIEKHLEKLKAKDKEAAERFLKELEEAAKEYAKDEAKTMSEEEAKRRAKKYKEKVLLSELSEEEQKEIKEAEEKLVRTILKYVEEAAK |
| 2.73 | R38G (designed binder) SMEEEVEKAAKEYEKKKKEAIEKHLEKLKAKDKEAAEGFLKELEEAAKEYAKDEAKTMSEEEAKRRAKKYKEKVLLSELSEEEQKEIKEAEEKLVRTILKYVEEAAK |
| 1.16 | E34C (designed binder) SMEEEVEKAAKEYEKKKKEAIEKHLEKLKAKDKCAAERFLKELEEAAKEYAKDEAKTMSEEEAKRRAKKYKEKVLLSELSEEEQKEIKEAEEKLVRTILKYVEEAAK |
